The numbers were not newly measured in article PMC7811009, “Oxytocin modulates local topography of human functional connectome in healthy men at rest” (Communications Biology, 2021), which cites them from elsewhere.

For data set [1] the following is noted: rhesus monkeys, cited from earlier work. The source says:
Our findings support our previous observations that increases in oxytocin in systemic circulation cannot fully account for the changes in rCBF observed after intranasal oxytocin[11] and lend support to the contribution of nose-to-brain pathways to the effects of intranasal oxytocin on brain function. However, they cannot highlight the precise mechanisms of transport underlying its functional effects. We believe that most evidence to date concurs on the idea that oxytocin, when administered intranasally, may diffuse from the olfactory and respiratory epithelia in the middle and upper poster ...

For data set [2] the following is noted: intravenous infusion, primates; cited from earlier work. The source says: It is not yet clear which precise mechanisms mediate the effects of intravenous oxytocin on brain function. […] At least three mechanisms have been postulated. First, it is possible that the direct peripheral effects of oxytocin on oxytocin receptors expressed in vegetative territories, such as the heart, may be an indirect source of changes in the brain.

For the substance “labelled synthetic oxytocin: labelled synthetic oxytocin given intravenously or intranasally to primates / rhesus monkeys in cited studies”, the Brain regions reached entry in data set [1] (administered intranasally) was “reaches several brain regions (orbitofrontal cortex, striatum, thalamus and brainstem)”. Also, the “Labelled oxytocin in brain regions (orbitofrontal cortex, striatum, thalamus and brainstem)” value in data set [1] (same doses administered intravenously) is recorded as “No detectable amounts”. Also, the “Synthetic oxytocin levels in the CSF” value in data set [2] was “increased synthetic oxytocin levels in the CSF”.
